Experimental findings from the supplement of paper PMC7877785 are described below.

This data set is described as follows: self-splicing fitness, log relative to wild type (ln ratio); higher = more splicing; Tetrahymena group I intron in knt gene, E. coli kanamycin selection, DiMSum; sequences stand for … in CUCUCU…GGAGGGAAAAGUUAUCAGGCAUGCACCUGGUAGCUAGUCUUUAAACCAAUAGAUUGCAUCGGUUUAAAAGGCAAGACCGUCAAAUUGCGGGAAAGGGGUCAACAGCCGUUCAGUACCAAGUCUCAGGGGAAACUUUGAGAUGGCCUUGCAAAGGGUAUGGUAAUAAGCUGACGGACAUGGUCCUAACCACGCAGCCAAGUCCUAAGUCAACAGAUCUUCUGUUGAUAUGGAUGCAGUUCACAGACUAAAUGUCGGUCGGGGAAGAUGUAUUCUUCUCAUAAGAUAUAGUCGGACCUCUCCUUAAUGGGAGCUAGCGGAUGAAGUGAUGCAACACUGGAGCCGCUGGGAACUAAUUUGUAUGCGAAAGUAUAUUGAUUAGUUUUGGAGUACUCGUGGUCG
The gist of the method:
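Six replicate transformations of E. coli BL21(DE3) with a pET-22b(+) library were grown overnight at 37°C or 30°C. The library randomised all eight P1ex-region intron nucleotides, the intron lying in the knt kanamycin-resistance gene, and plates were LB agar with or without 25 μg/mL kanamycin plus 100 μg/mL carbenicillin, 50 μM IPTG and 0.2% rhamnose. Pooled colonies were amplicon-sequenced on an Illumina HiSeq 2500, and fitness is the DiMSum error-weighted combination of wild-type-normalised replicate fold changes, kanamycin versus none.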

± gives the uncertainty stated by the source.

Consider GCACAGCAAUAUUACGAGCU, for which the “self-splicing fitness (ln)” value by setting is: (30 °C) -2.63 ± 0.11; (37 °C) -1.07 ± 0.1.
For GCGUAGCAAUAUUACGCUAU, in that order: -4.42 ± 0.42 and -2.46 ± 0.45.
In the same order, the values of GAGAAGCAAUAUUACGCAAC are -1.48 ± 0.14 and -2.11 ± 0.26.
For the sequence CUUGAGCAAUAUUACGCACC, the “self-splicing fitness (ln)” value (37 °C) is -1.68 ± 0.4.
For the sequence ACCGAGCAAUAUUACGAUAC, the “self-splicing fitness (ln)” value runs as follows: (30 °C) -4.32 ± 0.36; (37 °C) -2.09 ± 0.27.
For GGCCAGCAAUAUUACGAAGU, in that order: -2.41 ± 0.39 and -1.26 ± 0.26.
In the same order, the values of CGGAAGCAAUAUUACGGAGC are -2.75 ± 0.26 and -1.88 ± 0.36.
On to UUACAGCAAUAUUACGAAUU, for which the “self-splicing fitness (ln)” value is, setting by setting: (30 °C) -3.13 ± 0.22; (37 °C) -3.1 ± 0.24.
In the same order, the values of UGGUAGCAAUAUUACGCGAU are -2.54 ± 0.28 and -0.974 ± 0.26.
For GCGAAGCAAUAUUACGGUCA, in that order: -1.7 ± 0.11 and -1.36 ± 0.1.
Consider CAUAAGCAAUAUUACGGGAA, for which the “self-splicing fitness (ln)” value was -2.98 ± 0.21 (30 °C) and -2.23 ± 0.16 (37 °C).
For the sequence GUCUAGCAAUAUUACGAGGU, the “self-splicing fitness (ln)” value (37 °C) is -1.99 ± 0.4.
As for UUACAGCAAUAUUACGAGAU, the “self-splicing fitness (ln)” value was -2.96 ± 0.25 (30 °C) and -1.69 ± 0.24 (37 °C).
In the same order, the values of UGGUAGCAAUAUUACGUCCG are -0.727 ± 0.15 and -0.449 ± 0.24.
Consider UUGAAGCAAUAUUACGCUGA, for which the “self-splicing fitness (ln)” value is -1.61 ± 0.15 (30 °C) and -0.574 ± 0.19 (37 °C).
For CAAUAGCAAUAUUACGAGGG, in that order: -3.54 ± 0.16 and -0.649 ± 0.13.
As for AACGAGCAAUAUUACGGCAU, the “self-splicing fitness (ln)” value was -1.91 ± 0.1 (30 °C) and -0.446 ± 0.12 (37 °C).
In the same order, the values of CCGCAGCAAUAUUACGUUGC are -3.32 ± 0.14 and -2.7 ± 0.21.
For GCUAAGCAAUAUUACGCAAC, in that order: -2.35 ± 0.42 and -0.352 ± 0.47.
For UUACAGCAAUAUUACGCAAC, in that order: -3.55 ± 0.33 and -2.32 ± 0.27.
Regarding GAGUAGCAAUAUUACGCCGC, the “self-splicing fitness (ln)” value is -2.89 ± 0.25 (30 °C) and -1.29 ± 0.33 (37 °C).
In the same order, the values of CAAGAGCAAUAUUACGUCCU are -3.32 ± 0.43 and -2.24 ± 0.29.
For the sequence CAACAGCAAUAUUACGGUUC, the “self-splicing fitness (ln)” value is -1.89 ± 0.075 (30 °C) and -1.34 ± 0.1 (37 °C).
Consider CCAGAGCAAUAUUACGAGGG, for which the “self-splicing fitness (ln)” value is -4.31 ± 0.39 (30 °C) and -2.39 ± 0.41 (37 °C).
Turning to CAUGAGCAAUAUUACGCUAA, the “self-splicing fitness (ln)” value (37 °C) is -2.94 ± 0.43.
As to UGUUAGCAAUAUUACGUUCA, the “self-splicing fitness (ln)” value is, setting by setting: (30 °C) 0.071 ± 0.12; (37 °C) -0.114 ± 0.14.
For CGAGAGCAAUAUUACGCACU, in that order: -2.06 ± 0.2 and -1.89 ± 0.23.
Regarding AGCGAGCAAUAUUACGAAUG, the “self-splicing fitness (ln)” value reads like this: (30 °C) -3.8 ± 0.43; (37 °C) -2.2 ± 0.42.
As for AACCAGCAAUAUUACGAUGA, the “self-splicing fitness (ln)” value is -0.753 ± 0.069 (30 °C) and -0.507 ± 0.08 (37 °C).
As to UGCGAGCAAUAUUACGGACU, the “self-splicing fitness (ln)” value (37 °C) was -1.12 ± 0.34.
Regarding AGACAGCAAUAUUACGAGUC, the “self-splicing fitness (ln)” value reads like this: (30 °C) -3.06 ± 0.19; (37 °C) -2.52 ± 0.22.
For UCACAGCAAUAUUACGAACG, in that order: -1.61 ± 0.18 and -1.19 ± 0.21.
Consider GAUAAGCAAUAUUACGGCGC, for which the “self-splicing fitness (ln)” value (30 °C) came out at 0.0448 ± 0.13 and the “self-splicing fitness (ln)” value (37 °C) is -0.881 ± 0.13.
Regarding GCAAAGCAAUAUUACGGAAC, the “self-splicing fitness (ln)” value reads like this: (30 °C) -1.63 ± 0.18; (37 °C) -0.635 ± 0.17.
For the sequence UAGGAGCAAUAUUACGUGUG, the “self-splicing fitness (ln)” value is -2.86 ± 0.15 (30 °C) and -1.72 ± 0.15 (37 °C).
In the same order, the values of CUCAAGCAAUAUUACGUCAG are -1.5 ± 0.077 and -0.908 ± 0.099.
Take AGAUAGCAAUAUUACGAUCA: the “self-splicing fitness (ln)” value (30 °C) was -0.325 ± 0.089 and the “self-splicing fitness (ln)” value (37 °C) was -0.00339 ± 0.11.
For GUGCAGCAAUAUUACGUUCG, in that order: -1.52 ± 0.09 and -0.675 ± 0.14.
As for GACGAGCAAUAUUACGCCGU, under “30 °C”, the “self-splicing fitness (ln)” value was -2.58 ± 0.45.
Take CUUCAGCAAUAUUACGAUAC: the “self-splicing fitness (ln)” value is -3.22 ± 0.19 (30 °C) and -2.14 ± 0.33 (37 °C).
Consider UCCGAGCAAUAUUACGGCGC, for which the “self-splicing fitness (ln)” value (37 °C) was -3.02 ± 0.37.
AGUUAGCAAUAUUACGAGCG: the “self-splicing fitness (ln)” value is, setting by setting: (30 °C) -0.12 ± 0.1; (37 °C) 0.237 ± 0.11.
For UCUCAGCAAUAUUACGAUCG, in that order: -1.29 ± 0.12 and -0.618 ± 0.15.
Regarding UAUAAGCAAUAUUACGCACU, the “self-splicing fitness (ln)” value by setting is: (30 °C) 0.11 ± 0.12; (37 °C) -0.923 ± 0.12.
Take UAAGAGCAAUAUUACGCUCG: the “self-splicing fitness (ln)” value (37 °C) is -0.845 ± 0.23.
Regarding CUGUAGCAAUAUUACGAUAG, the “self-splicing fitness (ln)” value (30 °C) is -1.9 ± 0.23 and the “self-splicing fitness (ln)” value (37 °C) is -1.17 ± 0.15.
For GCAAAGCAAUAUUACGGCGA, in that order: -0.683 ± 0.067 and -0.115 ± 0.084.
For CCAUAGCAAUAUUACGGCCA, in that order: -3.07 ± 0.37 and -3.3 ± 0.42.
In the same order, the values of UCGUAGCAAUAUUACGAUUG are -2.6 ± 0.15 and -2.92 ± 0.28.
With AGUGAGCAAUAUUACGGGCG, the “self-splicing fitness (ln)” value was -1.04 ± 0.19 (30 °C) and -0.922 ± 0.27 (37 °C).
In the same order, the values of CAUAAGCAAUAUUACGUUGA are -3.55 ± 0.16 and -2.85 ± 0.16.
In the same order, the values of UUUAAGCAAUAUUACGAGCG are -0.94 ± 0.14 and -0.4 ± 0.17.
For CCUAAGCAAUAUUACGGGCC, in that order: -3.18 ± 0.27 and -2.12 ± 0.22.
For CGCUAGCAAUAUUACGAACG, the “self-splicing fitness (ln)” value (30 °C) is -2.16 ± 0.099 and the “self-splicing fitness (ln)” value (37 °C) is -1.1 ± 0.11.
CUAUAGCAAUAUUACGGGCG: the “self-splicing fitness (ln)” value is -0.345 ± 0.084 (30 °C) and -0.342 ± 0.098 (37 °C).
GGACAGCAAUAUUACGCAAG: the “self-splicing fitness (ln)” value is -1.69 ± 0.11 (30 °C) and -1.41 ± 0.12 (37 °C).
As to CGUGAGCAAUAUUACGGAGU, the “self-splicing fitness (ln)” value is, setting by setting: (30 °C) -3.12 ± 0.23; (37 °C) -1.14 ± 0.4.
Regarding GGGCAGCAAUAUUACGUUAA, the “self-splicing fitness (ln)” value by setting is: (30 °C) -1.19 ± 0.1; (37 °C) -0.46 ± 0.11.
In the same order, the values of AAUUAGCAAUAUUACGACUU are 0.0659 ± 0.11 and 0.0237 ± 0.14.
Take GGCAAGCAAUAUUACGAAAG: the “self-splicing fitness (ln)” value (30 °C) is -2.97 ± 0.28.
Regarding UUACAGCAAUAUUACGACGG, the “self-splicing fitness (ln)” value was -0.531 ± 0.097 (30 °C) and 0.113 ± 0.13 (37 °C).
For CAGGAGCAAUAUUACGGCGG, in that order: -0.542 ± 0.074 and -0.0448 ± 0.091.
Regarding CGGAAGCAAUAUUACGUAAU, the “self-splicing fitness (ln)” value runs as follows: (30 °C) -2.35 ± 0.19; (37 °C) -1.23 ± 0.19.
Turning to AAACAGCAAUAUUACGACUA, the “self-splicing fitness (ln)” value (30 °C) is -0.953 ± 0.074 and the “self-splicing fitness (ln)” value (37 °C) was found to be 0.0444 ± 0.077.
For CCAGAGCAAUAUUACGUGAC, in that order: -3.36 ± 0.19 and -3.93 ± 0.46.
Consider CAUGAGCAAUAUUACGUCAG, for which the “self-splicing fitness (ln)” value by setting is: (30 °C) -1.35 ± 0.095; (37 °C) -1.13 ± 0.12.
For AUGGAGCAAUAUUACGGACG, in that order: -2.44 ± 0.32 and -0.988 ± 0.3.
Regarding AAUCAGCAAUAUUACGUCCA, the “self-splicing fitness (ln)” value is, setting by setting: (30 °C) -0.876 ± 0.1; (37 °C) -0.0432 ± 0.12.
In the same order, the values of GCAGAGCAAUAUUACGAGGG are -3.47 ± 0.22 and -2.2 ± 0.24.
As to CGGAAGCAAUAUUACGCUCG, the “self-splicing fitness (ln)” value is, setting by setting: (30 °C) -3.42 ± 0.21; (37 °C) -1.97 ± 0.23.
In the same order, the values of CGCAAGCAAUAUUACGUCCC are -2.84 ± 0.34 and -0.615 ± 0.26.
In the same order, the values of CACAAGCAAUAUUACGAAUC are -4.04 ± 0.46 and -2.37 ± 0.18.
In the same order, the values of UCAAAGCAAUAUUACGUUGG are -3.81 ± 0.18 and -3 ± 0.24.
For the sequence UCAAAGCAAUAUUACGCAGG, the “self-splicing fitness (ln)” value was -4.07 ± 0.2 (30 °C) and -2.2 ± 0.14 (37 °C).
UGCAAGCAAUAUUACGGCGU: the “self-splicing fitness (ln)” value is, setting by setting: (30 °C) -1.24 ± 0.071; (37 °C) -0.6 ± 0.091.
For ACUGAGCAAUAUUACGGGAA, in that order: -2.94 ± 0.17 and -2.48 ± 0.24.
For AGCGAGCAAUAUUACGAGUG, in that order: -2.92 ± 0.25 and -2.12 ± 0.26.
Take CGUGAGCAAUAUUACGCUAA: the “self-splicing fitness (ln)” value (37 °C) is -1.26 ± 0.48.
